The term Kd denotes the concentration at which binding is half-saturated. Low values mean higher affinity, high ones lower affinity. One may read the Ki as the equilibrium dissociation constant of an inhibitor or competing ligand from its target. Higher therefore signals a looser hold on the target.

In assay [1] the target is human Nectin-4 ECD (human) (UniProt Q96NY8). Briefly: SPR. (In general: In SPR one partner is held on a chip, and binding of the other changes the refractive index at the surface.)
A further assay has as its target T1, human Nectin-4 ECD (human, UniProt Q96NY8 32-349).
T1 sequence (looked up): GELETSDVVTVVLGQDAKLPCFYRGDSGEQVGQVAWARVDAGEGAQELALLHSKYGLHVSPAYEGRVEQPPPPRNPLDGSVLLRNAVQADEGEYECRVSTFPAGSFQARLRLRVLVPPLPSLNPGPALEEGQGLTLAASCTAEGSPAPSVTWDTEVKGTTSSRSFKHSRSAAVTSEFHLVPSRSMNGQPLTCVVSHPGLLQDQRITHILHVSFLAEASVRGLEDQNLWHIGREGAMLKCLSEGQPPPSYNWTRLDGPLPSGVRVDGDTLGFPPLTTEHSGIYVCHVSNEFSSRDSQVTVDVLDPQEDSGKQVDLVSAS
As to the kind of experiment: fluorescence polarisation. (In general: In fluorescence polarisation assays a small probe gives low polarisation when free and higher when bound to something large.)

*1 amine or outer side, *2 acyl side, *3 side chain or, on linkers, in order; H or OH if unused. Bridges are numbered along the chain shown (N, C = ends). TATA = O=C(CC[*:1])N1CN(C(=O)CC[*:2])CN(C(=O)CC[*:3])C1

On to “Bicycle Toxin Conjugate BT8009 (peptide)”, for which the Kd in assay [1] was found to be 2.5 nM.

B1: Bicycle 10 (peptide)
peptide: Ac-CPFGCMKNWSWPIWC-NH2
modifications: linker 1-5-15 via TATA
SMILES: CC[C@H](C)[C@@H]1NC(=O)[C@@H]2CCCN2C(=O)[C@H](Cc2c[nH]c3ccccc23)NC(=O)[C@H](CO)NC(=O)[C@H](Cc2c[nH]c3ccccc23)NC(=O)[C@H](CC(N)=O)NC(=O)[C@H](CCCCN)NC(=O)[C@H](CCSC)NC(=O)[C@@H]2CSCCC(=O)N3CN(CN(C3)C(=O)CCSC[C@H](NC(C)=O)C(=O)N3CCC[C@H]3C(=O)N[C@@H](Cc3ccccc3)C(=O)NCC(=O)N2)C(=O)CCSC[C@@H](C(N)=O)NC(=O)[C@H](Cc2c[nH]c3ccccc23)NC1=O
As to B1, in the assay with human Nectin-4 ECD, the Ki came out at 17.6 nM.

B2: Bicycle 8 (peptide)
peptide: Ac-CPFGCMKNWSWPIWCTNK-NH2
modifications: linker 1-5-15 via TATA
B2 registered a Ki with human Nectin-4 ECD of 13.5 nM.

These data come from article PMC9661471 (Journal of Medicinal Chemistry, 2022).
